These are literature values, as cited in publication PMC12193198.

This data set concerns the target transferrin receptor (TfR) (Homo sapiens) (UniProt P02786).

transferrin receptor (TfR) (Homo sapiens), sequence (P02786 89-760): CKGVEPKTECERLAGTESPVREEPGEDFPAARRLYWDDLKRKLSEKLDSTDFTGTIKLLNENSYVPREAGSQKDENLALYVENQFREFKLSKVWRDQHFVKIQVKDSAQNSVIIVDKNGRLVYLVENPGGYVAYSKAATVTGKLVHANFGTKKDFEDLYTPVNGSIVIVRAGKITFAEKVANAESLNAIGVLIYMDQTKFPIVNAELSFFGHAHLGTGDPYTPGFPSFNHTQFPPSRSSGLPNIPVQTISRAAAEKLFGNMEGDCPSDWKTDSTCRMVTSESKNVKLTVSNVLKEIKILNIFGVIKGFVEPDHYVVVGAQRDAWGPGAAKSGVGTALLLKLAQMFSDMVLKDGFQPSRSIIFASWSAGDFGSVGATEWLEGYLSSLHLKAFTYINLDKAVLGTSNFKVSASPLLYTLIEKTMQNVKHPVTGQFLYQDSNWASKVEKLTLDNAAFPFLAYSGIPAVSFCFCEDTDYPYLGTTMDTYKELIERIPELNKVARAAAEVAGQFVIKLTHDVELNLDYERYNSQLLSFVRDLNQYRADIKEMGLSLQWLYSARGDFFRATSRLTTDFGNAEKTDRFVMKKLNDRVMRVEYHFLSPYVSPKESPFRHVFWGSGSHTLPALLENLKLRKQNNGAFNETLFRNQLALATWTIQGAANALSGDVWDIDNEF

In the case of T7 peptide, the Kd was 10 nM.

One may read the Kd as the constant that tells how readily two partners part at equilibrium.
